Data as given in a protein production outcome set (Wang et al. 2014).

Experiment: label from the status in PepcDB records
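Note: failed if final PepcDB status was selected cloned or expressed and not failed if soluble or beyond.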

Sequence	protein production
MQTEIITQLVLIFPEILIALGGITLLLFGVYSKASSSLTVTGLAIALFVATIVIIIIFPKSGLFQTNALIIDSFGRYMKILTLIGALFALIMSVNFTSTQKFDIFEFPVLVLLATLGMMLMISAGNMLSLYMGLELQSLALYVLAAINRNNIKSSEAGIKYFALGALSSGLLLYGISLVYGFTGQIGFREIAVALKGENLPLGVIFGIVFILAGLAFKISAVPFHMWTPDVYEGAPTPITAFFAGAPKVAAMALIVRIIVMTFIPLENTDGSMPAWQQILVFMAIASMILGAFAAIGQSNIKRLMAYSSISHMGYALVGLASGDMLGIKSVILYMTIYLSMTIGSFAFILGMRSSDGNVEDIYDLSGLVKTNPFMAITMTIQLFSLASIPPMAGFFGKWYTFSAAVHAGLTPLAIVGMIASVVGAFYYLRLIKIMWFDDAKAHFIVLSNEFRFCLSFSAFFILSYTLFGIWFADLAERAATALF	failed
MQTKVINFNDKFSLFNQHWSPRVIAEMNDYQFKLVKVEGEFVWHEHADTDEVFIVMEGTLQIAFRDQNITLQAGEMYVIPKGVEHKPMAKEECKIMIIEPR	not failed
MQTLNVLDNRFSPFNTYSTLSTDALVAETFTNTIFDKRQILALMTQLQTTLDIDELLSIFAVEATRYVDFSGLYFKSQNLNTVLFGSRKAKKEQCFELKIEDNFIGTLSYGINSPISLTNFKVLEQLHLCLLHPIKNAIAYHTAMQLAMQDGLTGLGNRRYFDEQLKRSMHNANRHHSLVGLVLGDLNKFKAINDTHGHIAGDTVLQEFANVLRLCTRDSDSLFRFGGDEFAIIVENANDTALAIIENRINLALASNVQLNKYQLGCSIGSTFMNRADNELSFFERADEILYRRKMQVSSHLSVV	failed
MQTSNITNHERNDSSWMSTVKSTTEVSWNKLSFCDILLKIITFGIYSPHETLAEKHSEKKLMDSFSPSLSQDKMDGEFAHANIDGISIRLCLNKGICSVFYLDGDKIQSTQLSSKEYNNLLSSLPPKQFNLGKVHTITAPVSGNFKTHKPAPEVIETAINCCTSIIPNDDYFHVKDTDFNSVWHDIYRDIRASDSNSTKIYFNNIEIPLKLIADLINELGINEFIDSKKELQMLSYNQVNKIINSNFPQQDLCFQTEKLLFTSLFQDPAFISALTSAFWQSLHITSSSVEHIYAQIMSENIENRLNFMPEQRVINNCGHIIKINAVVPKNDTAISASGGRAYEVSSSILPSHITCNGVGINKIETSYLVHAGTLPSSEGLRNAIPPESRQVSFAIISPDV	not failed
MQTTEIDLRLTEVSQQLTMVLVPGLRDSDDEHWQSHWERRFPHWQRIRQREWYQADLDRWVLAIRRELSVCTQPVILIGHSFGALAACHVVQQGQEGIAGVMLVAPAEPMRFEIDDRIQASPLSVPTLTFASHNDPLMSFTRAQYWAQAWDSELVDVGEAGHINAEAGFGPWEYGLKRLAEFSEILIPNR	not failed
MQTVPSSDGTPIAFERSGSGPPVVLVGGALSTRAGGAPLAERLAPHFTVICYDRRGRGDSGDTPPYAVEREIEDLAAIIDAAGGAAFVFGMSSGAGLSLLAAASGLPITRLAVFEPPYAVDDSRPPVPPDYQTRLDALLAEGRRGDAVTYFMTEGVGVPPDLVAQMQQAPMWPGMEAVAHTLPYDHAVMGDNTIPTARFASISIPTLVMDGGASPAWIRHTAQELADTIPNARYVTLENQTHTVAPDAIAPVLVEFFTR	not failed
MQVRIERAERIESELEEHVGDQTFVEESRFLEEDEQREGEILDQIIFVDGKRRSFVRITTDEGITGIFAELCVGAVIWDREGGTKTLFSPDKPPVKERVLGFSQSFQEEGYEEVGGILFKVVKEGKDAMQSIDLYMRSLEIEEVRKHMDKNILIVKDGPAARELPFEENVGPIGLVKNIGVTELSKEDFKKLRFLKKGKRSKMFVSSRETPLKKVGAYVKLIDGEGIRGLVRLETYVKDDNQIPYIRKVFDDLAKTLPHLTADLPIPRLPENILPIQFLEENLSYYLTDKNYMNTRLFAYIGR	not failed
MQVTADAVPKLNRAAVAAGSADIDAVSGATYTSAGYVKSLQSALDKAAAAAGPAAQESSGADSGSGGGGRSEGDAGQGTQVLTGDAAQTQYGPVQVRVTVSGGRITDVEALQAPKGGRSDQVTADAVPRLNRAAVAAGTADIDAVSGATYTSAGYTQSLQSALDRAGGLEHHHHHH	failed
MQWANLALFLTEAIVYFSVMTAFLHYRHILGIGVFLTALGVMHFLETYLAAVFYVQLPFGVASPGSSILFAGKLMMILMLYMREDAAVVRQPIYGLFLGNILTVIMAQIIRFHQTVAIVPGQSVSTGFLDEMGILMVWGTSLLYIDAIAIILFYEKLGRYLQRHIVLRFAICGVVILSFDQAGFYGALRLLFNAPVDVFYDGWKAKMAAVGIYSLLFATYLWLTAAKGRFLTRRSVADVFNDLTFRERYEELLSRSGRDMLTGVSDRARMELDAPSLVVECLEKRRPVSVLIVDIDHFKTVNDTFGHLQGDEILREFAAVLKRAVQPLGHLYRFGGEEFVALLPAMTHETALAFSASLRVAVLAELQRPDGSPLTVSIGVATAFEDGQLFRALLSEADAWLYAAKNNGRDQVHGRHGMWVG	failed
MQWIYLCFAILFEVAGTTAMKLSDGLTKLVPSILIFVFYVVSFAFLSFALKGMEMSVAYAVWSGMGIVTITTIGFIYFGESINIIKILAILFILVGVVILNFNSTAHEAKKKEMVEERIH	failed
MQYIFSIISGIIVGFSLGLIGGGGSILAIPLLIYFVGIKNPHLVIGTTALAVGINALINVYSHLRKKNVSLRTGAIFTVFGILGVLLGTTLGLITPGGKLLFLFSFLMIVIGAYMFITKCKTCKNYDAIPKKNNNDDPPDPPKKGLWQKIKLEVFGVLAGFASGYFGIGGGFLIVPALLYSADITMNLAVGTSLMSVGTFGLVTALRYGIAGKVLVTIALLYVLGGIFGGYAGAKLSSSMKRSTLRRFFSLIIIVVGIYMAIESFSAVF	failed
MQYIKQIMLLVILTISWKCQAEEVKEIWLDELGESSYYIQDWGLPRINKAVTMTPLTVKGIVYERGIGTHAISRMLFDIGKKAKTLSGLAGADDNTPFACNLQFKILGDRKELWRSGIMRKGDPAKPFNIDLSGIDKVLLLVEECGDGMMYDRADWLNVKFTTLGDVQPIPVWPKPIAKEKYILTPQSPDAPQINNPLTYGARPGNPFLMPIMVSGKRPMTYKAKGLPKGLKLNRKTGLITGSTNTNGNFKVRLQATNEKGTDEKEITLKIGSEIMLTPPMGWNSWNCWRFAADDQKVRDAARIMHEKLQAYGWTYVNIDDGWEADERTPEGELPANEKFPDFKTLTDYIHSLGLKFGIYSSPGWTTCGRHIGSCQHELTDAKTWEKWGVDYLKYDYCGYAAIEKNSEEKTIQEPFIVMRNALDQIKRDIVYCVGYGAPNVWNWGAEAGGNLWRTTRDINDQWNIVMAIGCFQDVCAYVSAPGKYNDPDMLVVGKLGPGWGAKSHDSDLTADEQYAHISLWSILSAPLLLGCDMTAIDDFTLGLLTNPEVIAVNQDPLVAPATKLTVPNGQIWYKKLYDGSYALGFFQMDPYFILWDQDKAVNIQQQKYNFNFALNQLGIQGKVKIRDLWRQKNLGIFSGSYETSIPYHGVSLIKITPIK	failed
MQYQGRSKRSKTGARLRPRSKKSKSELGREPTETTVGEPRFRTVDVRGDAEKVRVLSTNVVNVATDSGAERATIEDVSANDANPNYARRNIITKGAIIETDAGTARVTSRPGQDGQVNATRVDE	failed
MRAAFRTLGCKVNQVETEALLGFLKALEPEVVPLEAGGADLVVINSCAVTTTAEADTRKEVRRARRYNPHAFIVVTGCYAELAPEVLKELGADAVVPNARKAELPRVILERFGLPSDPITTPPNEFWGAGERGLLNSRVRAFLKVQDGCQAGCAYCIIPRLRGKERHRDHREALAEAEALLRMGIKEIVLTGVRLGSYKGHPRGLAGLVEDLYHLGAKVRLSSIEPEDTGEDLLKVIGRYAPEVRPHLHLSLQTGSDRLLKLMGRRYDKAYYRELVQRAYDLIPGFALTTDVIAGLPTETEEEHRETLAFLEELRPTRVHAFTYTPRPKTRAASMPQVPPEVRKRRTKELIALAQRLAEERIRPRLGERVEVLVERVQGGEALGHTPDYYEARLEGEARPGETVWARVHGVEGYVLLGRVEGVKEGARGPLELPVRLEHHHHHH	failed
MRAASTSKPVGAHEETGHLGGAHSTYVSSAQVTNAEHENELQVVDLPRAPPSLSKAVTYFYITGFGRFALMEDNPTERVVLRLREILQDPGRVQMLHERLVRIVDLRILEVSAAAAHETLAEMKTQCLQMRQKPNISSDGRNRTVCFLHLGVDASADGFLVERSAVNEALFRFPDERGWQPTTPIPIVRGAQLGARYELDGEALASLCERTESLLNEWGRTNWTVRVNDDAGRFLCNYLFYLSAFEGLAENGHHLWQTFFLHCPMETVAPLDVQVDVVLAFMVAVAQSNAQQGPLEGILAR	not failed
